Our source for the Ki values is US20260015399A1 (Boehringer Ingelheim, published 2026).

*1 amine or outer side, *2 acyl side, *3 side chain or, on linkers, in order; H or OH if unused. Side-chain parts run from the residue outwards. The star is where a group is joined. C18 diacid = O=C(O)CCCCCCCCCCCCCCCCC(=O)*; γGlu = O=C(O)[C@H](CCC(=O)[*:2])N[*:1]; Isovaleryl = CC(C)CC(=O)*; Ahx = NCCCCCC(=O)O

The target in this assay is T1, human NPY2 receptor (human, UniProt P49146 1-381).
T1 construct: whole, on cells; also called hNPY2-R; hNPY2R
T1 sequence (looked up): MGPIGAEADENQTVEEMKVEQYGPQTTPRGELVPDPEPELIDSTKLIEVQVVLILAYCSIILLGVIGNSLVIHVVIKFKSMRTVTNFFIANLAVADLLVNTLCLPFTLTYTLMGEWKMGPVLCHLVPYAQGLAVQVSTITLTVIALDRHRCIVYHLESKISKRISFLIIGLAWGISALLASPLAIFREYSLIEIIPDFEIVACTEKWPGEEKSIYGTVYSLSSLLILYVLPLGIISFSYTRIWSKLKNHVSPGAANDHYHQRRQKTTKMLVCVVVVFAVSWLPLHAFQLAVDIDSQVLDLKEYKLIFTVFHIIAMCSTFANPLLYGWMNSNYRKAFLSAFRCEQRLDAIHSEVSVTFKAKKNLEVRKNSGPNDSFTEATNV
Briefly: RLB: displacement of 125I-PYY(1-36) from hNPY2R membranes. In general terms: In a radioligand displacement assay an active substance lowers the binding of a labelled ligand.

A word on the Ki: it is the dissociation constant of the complex between target and ligand, obtained from inhibition or displacement.

B1: Compound 109 (peptide)
peptide: Isovaleryl-APEK([Ahx-γGlu-C18 diacid])PEEDLTPEELQRYYVSLRHYYNWLTRQRY-NH2
SMILES: CC(C)CC(=O)N[C@@H](C)C(=O)N1CCC[C@H]1C(=O)N[C@@H](CCC(=O)O)C(=O)N[C@@H](CCCCNC(=O)CCCCCNC(=O)CC[C@H](NC(=O)CCCCCCCCCCCCCCCCC(=O)O)C(=O)O)C(=O)N1CCC[C@H]1C(=O)N[C@@H](CCC(=O)O)C(=O)N[C@@H](CCC(=O)O)C(=O)N[C@@H](CC(=O)O)C(=O)N[C@@H](CC(C)C)C(=O)N[C@H](C(=O)N1CCC[C@H]1C(=O)N[C@@H](CCC(=O)O)C(=O)N[C@@H](CCC(=O)O)C(=O)N[C@@H](CC(C)C)C(=O)N[C@@H](CCC(N)=O)C(=O)N[C@@H](CCCNC(=N)N)C(=O)N[C@@H](Cc1ccc(O)cc1)C(=O)N[C@@H](Cc1ccc(O)cc1)C(=O)N[C@H](C(=O)N[C@@H](CO)C(=O)N[C@@H](CC(C)C)C(=O)N[C@@H](CCCNC(=N)N)C(=O)N[C@@H](Cc1c[nH]cn1)C(=O)N[C@@H](Cc1ccc(O)cc1)C(=O)N[C@@H](Cc1ccc(O)cc1)C(=O)N[C@@H](CC(N)=O)C(=O)N[C@@H](Cc1c[nH]c2ccccc12)C(=O)N[C@@H](CC(C)C)C(=O)N[C@H](C(=O)N[C@@H](CCCNC(=N)N)C(=O)N[C@@H](CCC(N)=O)C(=O)N[C@@H](CCCNC(=N)N)C(=O)N[C@@H](Cc1ccc(O)cc1)C(N)=O)[C@@H](C)O)C(C)C)[C@@H](C)O
Molecule B1 showed a Ki of 14 nM.

B2: Compound 111 (peptide)
peptide: Isovaleryl-APAK([Ahx-γGlu-C18 diacid])PEAAAEPEEIQRYYVSLRHYYNWLTRQRY-NH2
SMILES: CC[C@H](C)[C@H](NC(=O)[C@H](CCC(=O)O)NC(=O)[C@H](CCC(=O)O)NC(=O)[C@@H]1CCCN1C(=O)[C@H](CCC(=O)O)NC(=O)[C@H](C)NC(=O)[C@H](C)NC(=O)[C@H](C)NC(=O)[C@H](CCC(=O)O)NC(=O)[C@@H]1CCCN1C(=O)[C@H](CCCCNC(=O)CCCCCNC(=O)CC[C@H](NC(=O)CCCCCCCCCCCCCCCCC(=O)O)C(=O)O)NC(=O)[C@H](C)NC(=O)[C@@H]1CCCN1C(=O)[C@H](C)NC(=O)CC(C)C)C(=O)N[C@@H](CCC(N)=O)C(=O)N[C@@H](CCCNC(=N)N)C(=O)N[C@@H](Cc1ccc(O)cc1)C(=O)N[C@@H](Cc1ccc(O)cc1)C(=O)N[C@H](C(=O)N[C@@H](CO)C(=O)N[C@@H](CC(C)C)C(=O)N[C@@H](CCCNC(=N)N)C(=O)N[C@@H](Cc1c[nH]cn1)C(=O)N[C@@H](Cc1ccc(O)cc1)C(=O)N[C@@H](Cc1ccc(O)cc1)C(=O)N[C@@H](CC(N)=O)C(=O)N[C@@H](Cc1c[nH]c2ccccc12)C(=O)N[C@@H](CC(C)C)C(=O)N[C@H](C(=O)N[C@@H](CCCNC(=N)N)C(=O)N[C@@H](CCC(N)=O)C(=O)N[C@@H](CCCNC(=N)N)C(=O)N[C@@H](Cc1ccc(O)cc1)C(N)=O)[C@@H](C)O)C(C)C
B2 came in with a Ki of 2.14 nM.

B3: Compound 119 (peptide)
peptide: Isovaleryl-APEK([Ahx-γGlu-C18 diacid])PEEDATPEESQRYYVSLRHYYNWLTRQRY-NH2
SMILES: CC(C)CC(=O)N[C@@H](C)C(=O)N1CCC[C@H]1C(=O)N[C@@H](CCC(=O)O)C(=O)N[C@@H](CCCCNC(=O)CCCCCNC(=O)CC[C@H](NC(=O)CCCCCCCCCCCCCCCCC(=O)O)C(=O)O)C(=O)N1CCC[C@H]1C(=O)N[C@@H](CCC(=O)O)C(=O)N[C@@H](CCC(=O)O)C(=O)N[C@@H](CC(=O)O)C(=O)N[C@@H](C)C(=O)N[C@H](C(=O)N1CCC[C@H]1C(=O)N[C@@H](CCC(=O)O)C(=O)N[C@@H](CCC(=O)O)C(=O)N[C@@H](CO)C(=O)N[C@@H](CCC(N)=O)C(=O)N[C@@H](CCCNC(=N)N)C(=O)N[C@@H](Cc1ccc(O)cc1)C(=O)N[C@@H](Cc1ccc(O)cc1)C(=O)N[C@H](C(=O)N[C@@H](CO)C(=O)N[C@@H](CC(C)C)C(=O)N[C@@H](CCCNC(=N)N)C(=O)N[C@@H](Cc1c[nH]cn1)C(=O)N[C@@H](Cc1ccc(O)cc1)C(=O)N[C@@H](Cc1ccc(O)cc1)C(=O)N[C@@H](CC(N)=O)C(=O)N[C@@H](Cc1c[nH]c2ccccc12)C(=O)N[C@@H](CC(C)C)C(=O)N[C@H](C(=O)N[C@@H](CCCNC(=N)N)C(=O)N[C@@H](CCC(N)=O)C(=O)N[C@@H](CCCNC(=N)N)C(=O)N[C@@H](Cc1ccc(O)cc1)C(N)=O)[C@@H](C)O)C(C)C)[C@@H](C)O
B3 had an inhibitory constant (Ki) of 5.73 nM.

B4: Compound 113 (peptide)
peptide: Isovaleryl-APEK([Ahx-γGlu-C18 diacid])PEEDATPEEIQRYYVSLRHYQNWLTRQRY-NH2
SMILES: CC[C@H](C)[C@H](NC(=O)[C@H](CCC(=O)O)NC(=O)[C@H](CCC(=O)O)NC(=O)[C@@H]1CCCN1C(=O)[C@@H](NC(=O)[C@H](C)NC(=O)[C@H](CC(=O)O)NC(=O)[C@H](CCC(=O)O)NC(=O)[C@H](CCC(=O)O)NC(=O)[C@@H]1CCCN1C(=O)[C@H](CCCCNC(=O)CCCCCNC(=O)CC[C@H](NC(=O)CCCCCCCCCCCCCCCCC(=O)O)C(=O)O)NC(=O)[C@H](CCC(=O)O)NC(=O)[C@@H]1CCCN1C(=O)[C@H](C)NC(=O)CC(C)C)[C@@H](C)O)C(=O)N[C@@H](CCC(N)=O)C(=O)N[C@@H](CCCNC(=N)N)C(=O)N[C@@H](Cc1ccc(O)cc1)C(=O)N[C@@H](Cc1ccc(O)cc1)C(=O)N[C@H](C(=O)N[C@@H](CO)C(=O)N[C@@H](CC(C)C)C(=O)N[C@@H](CCCNC(=N)N)C(=O)N[C@@H](Cc1c[nH]cn1)C(=O)N[C@@H](Cc1ccc(O)cc1)C(=O)N[C@@H](CCC(N)=O)C(=O)N[C@@H](CC(N)=O)C(=O)N[C@@H](Cc1c[nH]c2ccccc12)C(=O)N[C@@H](CC(C)C)C(=O)N[C@H](C(=O)N[C@@H](CCCNC(=N)N)C(=O)N[C@@H](CCC(N)=O)C(=O)N[C@@H](CCCNC(=N)N)C(=O)N[C@@H](Cc1ccc(O)cc1)C(N)=O)[C@@H](C)O)C(C)C
Regarding B4, the inhibition constant (Ki) came to 3.53 nM.

B5: Compound 110 (peptide)
peptide: Isovaleryl-APEK([Ahx-γGlu-C18 diacid])PEEDATPEELQRYYVELRHYYNWLTRQRY-NH2
SMILES: CC(C)CC(=O)N[C@@H](C)C(=O)N1CCC[C@H]1C(=O)N[C@@H](CCC(=O)O)C(=O)N[C@@H](CCCCNC(=O)CCCCCNC(=O)CC[C@H](NC(=O)CCCCCCCCCCCCCCCCC(=O)O)C(=O)O)C(=O)N1CCC[C@H]1C(=O)N[C@@H](CCC(=O)O)C(=O)N[C@@H](CCC(=O)O)C(=O)N[C@@H](CC(=O)O)C(=O)N[C@@H](C)C(=O)N[C@H](C(=O)N1CCC[C@H]1C(=O)N[C@@H](CCC(=O)O)C(=O)N[C@@H](CCC(=O)O)C(=O)N[C@@H](CC(C)C)C(=O)N[C@@H](CCC(N)=O)C(=O)N[C@@H](CCCNC(=N)N)C(=O)N[C@@H](Cc1ccc(O)cc1)C(=O)N[C@@H](Cc1ccc(O)cc1)C(=O)N[C@H](C(=O)N[C@@H](CCC(=O)O)C(=O)N[C@@H](CC(C)C)C(=O)N[C@@H](CCCNC(=N)N)C(=O)N[C@@H](Cc1c[nH]cn1)C(=O)N[C@@H](Cc1ccc(O)cc1)C(=O)N[C@@H](Cc1ccc(O)cc1)C(=O)N[C@@H](CC(N)=O)C(=O)N[C@@H](Cc1c[nH]c2ccccc12)C(=O)N[C@@H](CC(C)C)C(=O)N[C@H](C(=O)N[C@@H](CCCNC(=N)N)C(=O)N[C@@H](CCC(N)=O)C(=O)N[C@@H](CCCNC(=N)N)C(=O)N[C@@H](Cc1ccc(O)cc1)C(N)=O)[C@@H](C)O)C(C)C)[C@@H](C)O
B5 returned a Ki of 6.42 nM.

B6: Compound 112 (peptide)
peptide: Isovaleryl-APEK([Ahx-γGlu-C18 diacid])PEEDAEPEEIQRYYVSLRHYYNWLTRQRY-NH2
SMILES: CC[C@H](C)[C@H](NC(=O)[C@H](CCC(=O)O)NC(=O)[C@H](CCC(=O)O)NC(=O)[C@@H]1CCCN1C(=O)[C@H](CCC(=O)O)NC(=O)[C@H](C)NC(=O)[C@H](CC(=O)O)NC(=O)[C@H](CCC(=O)O)NC(=O)[C@H](CCC(=O)O)NC(=O)[C@@H]1CCCN1C(=O)[C@H](CCCCNC(=O)CCCCCNC(=O)CC[C@H](NC(=O)CCCCCCCCCCCCCCCCC(=O)O)C(=O)O)NC(=O)[C@H](CCC(=O)O)NC(=O)[C@@H]1CCCN1C(=O)[C@H](C)NC(=O)CC(C)C)C(=O)N[C@@H](CCC(N)=O)C(=O)N[C@@H](CCCNC(=N)N)C(=O)N[C@@H](Cc1ccc(O)cc1)C(=O)N[C@@H](Cc1ccc(O)cc1)C(=O)N[C@H](C(=O)N[C@@H](CO)C(=O)N[C@@H](CC(C)C)C(=O)N[C@@H](CCCNC(=N)N)C(=O)N[C@@H](Cc1c[nH]cn1)C(=O)N[C@@H](Cc1ccc(O)cc1)C(=O)N[C@@H](Cc1ccc(O)cc1)C(=O)N[C@@H](CC(N)=O)C(=O)N[C@@H](Cc1c[nH]c2ccccc12)C(=O)N[C@@H](CC(C)C)C(=O)N[C@H](C(=O)N[C@@H](CCCNC(=N)N)C(=O)N[C@@H](CCC(N)=O)C(=O)N[C@@H](CCCNC(=N)N)C(=O)N[C@@H](Cc1ccc(O)cc1)C(N)=O)[C@@H](C)O)C(C)C
Turning to B6, the Ki came to 4.28 nM.
